Measurements published in US10272050B2, “Nanoparticles and methods of use” (The Brigham and Women's Hospital, Inc., priority 2014, dated 2019).

B1: recombinant mouse interleukin 10 (protein, UniProt P18893 19-178, looked up)
Interleukin-10: SRGQYSREDNNCTHFPVGQSHMLLELRTAFSQVKTFFQTKDQLDNILLTDSLMQDFKGYLGCQALSEMIQFYLVEVMPQAEKHGPEIKEHLNSLGEKLKTLRMRLRRCHRFLPCENKSKAVEQVKSDFNKLQDQGVYKAMNEFDIFINCIEAYMMIKMKS
notes: recombinant mouse interleukin 10, Mw ~36 kDa, from R&D Systems
B2: released IL-10: IL-10 released from TNPs (obtained at 48 h post-release) (protein, UniProt P18893 19-178, looked up)
Interleukin-10: B1 Interleukin-10
modifications: released from nanoparticles

What was measured:
[1] = In vitro release of proteins from TNPs in PBS; type: physicochemical; details: 100 rpm, 37° C.
Protocol: The protein-loaded nanoparticles were dispersed in 1 mL of phosphate-buffered saline solution (PBS) and subsequently incubated in a shaking incubator at 100 rpm and 37° C. At each time point, the protein released from nanoparticles was isolated using Amicon Ultra-0.5 centrifugal filters (MWCO 50 kDa) at 5,000 rpm for 2 min at 20° C. Then the protein-loaded nanoparticles were resuspended in PBS and incubated in the same manner until the last defined time point. The amount of released protein at each time point was measured at 450 nm using an ELISA kit. The measurements were done in triplicate.

[2] = Protein encapsulation efficiency and loading content (solvent-free loading, ELISA of unloaded protein); type: physicochemical; details: loaded into TNPs at 4° C. without organic solvents
Protocol: The protein encapsulation efficiency and the loading content were determined by separation of unloaded proteins from TNPs using Amicon Ultra centrifugal filters (MWCO 100 kDa). Unloaded proteins were measured using a protein ELISA kit and Synergy HT multi-mode microplate reader (BioTek Instruments Inc., Winooski, Vt., USA) at […] absorbance.

[3] = system: intracellular ROS in LPS-stimulated RAW 264.7 macrophage cells; test: Inhibition of intracellular ROS in LPS-stimulated macrophages (DCFH2-DA); type: cell-based
Protocol: To analyze the inhibitory effect of IL-10 on intracellular reactive oxygen species (ROS) generated from lipopolysaccharide (LPS)-stimulated macrophage cells, RAW 264.7 macrophage cells were seeded on a 24-well tissue culture plate at a density of 2×10^4 cells per well and then allowed to grow for 12 h. The cells were pre-treated with IL-10 at various concentrations (1 to 100 ng/mL) for 2 h and 24 h at 37° C. Then the medium was replaced with LPS solution (100 ng/mL), and the cells were further incubated for 4 h and 24 h at 37° C. The cells were then washed with PBS and incubated with 10 μM ROS detection reagent (DCFH2-DA) for 90 min at 37° C. Fluorescence intensity was measured using a Synergy HT multi-mode microplate reader with ex/em 485/528 nm filter (BioTek Instruments Inc).
In order to determine the bioactive integrity of IL-10 released from or loaded into TNPs, cells seeded on a 24-well tissue culture plate (2×10^4 cells/well) were pre-treated with native IL-10, IL-10 released from TNPs (obtained at 48 h post-release), or IL-10-loaded TNPs at 50 ng/mL concentration for 24 h at 37° C. Next, the medium was replaced with LPS solution (100 ng/mL), and the cells were stimulated with LPS for 24 h at 37° C. After washing with PBS, intracellular ROS was measured using the detection method mentioned above. […]

[4] = system: STAT3 and phosphorylated STAT3 (P-STAT3 at Tyr705); test: Western blot of STAT3 and P-STAT3 in unstimulated macrophage cells; type: cell-based; details: 20 ng/mL, 24 h; for Total levels of STAT3: β-Actin reference
Protocol: To determine the bioactivity of IL-10 in unstimulated cells, macrophage cells seeded on a 6-well tissue culture plate (5×10^5 cells/well) were treated with IL-10 (native IL-10 or released IL-10 at 20 ng/mL) and incubated for 24 h at 37° C. Then the cells were washed with ice-cold PBS three times and harvested by scraping into Eppendorf tubes, followed by centrifugation at 12,000 rpm for 5 min at 4° C. For protein extraction, the cells were lysed in 200 μL of protein extraction reagent (Fisher Scientific, Pittsburgh, Pa., USA) supplemented with protease inhibitor cocktail and phosphatase inhibitor cocktail (Sigma-Aldrich), and then centrifuged at 12,000 rpm for 10 min at 4° C. to remove the nuclei. Next, protein concentration was measured using a Coomassie Plus-Bradford™ assay with bovine serum albumin as the protein standard. The cell lysates (with 30 μg of protein) were mixed with 4× Laemmli Sample Buffer (Bio-Rad), and the mixture was boiled for 7 min at 95° C. […] Then the membranes were blocked with Tris-Buffered Saline-0.1% Tween 20 (TBST) solution containing 5% BSA for 2 h at 4° C. on a shaker. The primary antibodies (1:1000 dilutions) in TBST with 3% BSA were incubated with the membranes overnight at 4° C. on a shaker. After that, the membranes were washed with TBST solution four times (each 10 min) and then incubated with secondary antibody (1:10,000 dilutions) in TBST with 3% BSA for 1 h at room temperature on a shaker. Finally, the membranes were washed with TBST solution five times and visualized using Amersham ECL prime western blotting detection reagent (GE Healthcare Life Sciences, Pittsburgh, Pa., USA). The primary and secondary antibodies used in this study were from Cell Signaling Technology (Danvers, Mass., USA) as follows: β-Actin (8H10D10) Mouse mAb, Stat3 (124H6) Mouse mAb, and Phospho-Stat3 (Tyr705) (3E2) Mouse mAb as a primary antibody, and anti-mouse IgG (HRP-linked) antibody as a secondary antibody.

[5] = system: DNFB-induced allergic contact dermatitis; test: DNFB-induced allergic contact dermatitis (ACD) model; type: in vivo, C57BL/6 mice; details: 100 μg IL-10/kg i.v. 2 h before DNFB, ear thickness at 36 h
Protocol: C57BL/6 mice were administered i.v. saline, TNPs, IL-10, or IL-10-loaded TNPs (100 μg IL-10/kg). At 2 h post-injection, a 0.3% v/v solution of DNFB (2,4-dinitro-fluorobenzene) in acetone was applied the mice to the dorsal and ventral aspects of ear skin. Ear thickness was measured using an engineer's micrometer (Mitutoyo) at 36 h. The change of ear thickness is calculated as the difference between the treated ear and the contralateral ear treated with acetone alone.
Ears were fixed in a 10% formalin solution, embedded in paraffin, and submitted for histological analysis by haematoxilin and eosin staining to the Harvard Rodent Histopathology Core.
For ear-skin digestion, the dorsal and ventral aspects of the ear were mechanically separated before mincing and placing into a digestion mix consisting of DMEM (Gibco) supplemented with HEPES (Invitrogen), 2% FCS, 200 μg/mL Liberase TM (Roche), 10 μg/mL DNase I (Roche), and 5 mg/mL Collagenase D (Roche). Ears were digested for 80 minutes at 37° C. in gentleMACS tubes (Miltenyi) with gentle agitation in freshly prepared digestion mix. After enzymatic digestion, the mixture was processed using a gentleMACS homogenizer (Miltenyi) in order to obtain a cell suspension, which was then filtered through a 70 μm cell strainer (BD). Cells were then resuspended in FACS buffer for analysis. […]

sIL-1Ra gene expression = test: qPCR of sIL-1Ra in LPS-stimulated macrophage cells; type: cell-based; details: LPS 500 ng/mL 4 h, then IL-10 20 ng/mL 2 h
Protocol: (§1) Macrophage cells were seeded on a 6-well tissue culture plate (5×10^5 cells/well) and maintained for 12 h. The cells were treated with LPS (500 ng/mL) for 4 h, the medium was replaced with IL-10 solution (native IL-10 or released IL-10 at 20 ng/mL), and the cells were incubated for 2 h at 37° C. Next, the cells were washed with PBS and harvested by scraping, followed by centrifugation at 2,000 rpm for 5 min at 4° C. The isolated cell pellets were used to prepare the total RNA using the RNeasy® Mini Kit (QIAGEN, Valencia, Calif., USA) according to the manufacturer's protocol. For the preparation of cDNA, the extracted RNA solution (1 μg/5 μL) was then mixed with 0.5 μL of Oligo (dT) 15 primer (Promega, Madison, Wis., USA) and then reacted at 70° C. for 5 min using the Bio-Rad iCycler PCR Thermal Cycler (Bio-Rad Laboratories, Inc., Hercules, Calif., USA). The mixture was subsequently placed on ice for 5 min and mixed with various components to a final volume of 20 μL: nuclease-free water (5.6 μL), 10 mM dNTP mixture (Promega, 1 μL), 25 mM MgCl2 (Promega, 2.4 μL), ImProm-II™ reverse transcriptase (Promega, 1 μL), ImProm-II™ 5× reaction buffer (Promega, 4 μL), and RNasin® Plus RNase inhibitor (Promega, 0.5 μL). […] The relative gene expression levels were calculated using the ΔΔCt method and normalized to the expression of the reference gene (β-Actin). […]

[6] = mouse, in vivo, iv
Protocol: At 5 min, 30 min, 1 h, 2 h, 4 h, 8 h, 12 h, and 24 h post-injection, blood samples (0.5 mL) were drawn for serum protein concentration analysis. Next, the blood samples were placed at 4° C. overnight to allow the formation of a blood clot and centrifuged under 2,000×g for 15 min at 4° C. The serum samples were stored at −80° C. and analyzed using an ELISA kit. […] The AUC (area under the serum concentration-time curve) and AUMC (area under the first moment curve) were calculated using the trapezoidal rule.

[7] = system: TNF-α and IL-12 gene expression; test: qPCR of proinflammatory cytokines in LPS-stimulated macrophage cells; type: cell-based; details: LPS 500 ng/mL 4 h, then IL-10 20 ng/mL 2 h
Protocol: as §1

Row | Molecule | Release profile from TNPs [1] | Encapsulation efficiency [2] [%] | Loading content [2] [wt %] | Inhibitory effect on ROS production, dose response ([3]; IL-10 1-100 ng/mL, LPS 100 ng/mL, pre-treatment) | P-STAT3 (Tyr705) level [4] | Total levels of STAT3 [4] | Ear swelling [5] | Increase of sIL-1Ra mRNA expression compared to LPS alone (sIL-1Ra gene expression) | Clearance [6] [mL/min/kg] | Improvement of half-life versus IL-10 alone [6] [fold] | T1/2 terminal [6] [min] | Vss [6] [L/kg] | Inhibitory effect on ROS production, pre-treatment (IL-10→LPS) ([3]; 50 ng/mL IL-10 24 h, then 100 ng/mL LPS 24 h) | Reduction of TNF-α and IL-12 expression [7]
1 | lysozyme: lysozyme from chicken egg whites, model protein loaded into TNPs (1:20) | controlled-release kinetics up to a week | 90 | 1.8 |  |  |  |  |  |  |  |  |  |  | 
2 | B1 |  |  |  | dose-dependent inhibition effect | clear band | slightly increased | reduction of ear swelling compared to the saline-treated control | 1.5 fold | 32.9928 | 5.9 | 15 | 0.70727 |  | 
3 | B2 |  |  |  |  | almost identical | almost identical |  | effects identical to those of the native protein |  |  |  |  | almost no statistical difference between the released IL-10 and native IL-10 | ca. 2.5 fold
